# Test results: PMC5992326, “Structural Basis for the Initiation of Glycosaminoglycan Biosynthesis by Human Xylosyltransferase 1” (Structure(London, England:1993), 2018)
# T1: human xylosyltransferase 1 (XT1), residues 232-959 (human, UniProt Q86Y38 232-959, N-linked glycosylation at N777)
# T1 construct: human xylosyltransferase 1 (XT1), residues 232-959, amplified from a Dharmacon cDNA clone; The vector is a modified pCEP-Pu (pCEP-Pu-N-His-TEV, Pulido et al., 2017); also called peptide O-xylosyltransferase; XYLT1; source: FreeStyle 293-F (HEK293-F) cells, transfected, secreted; purified (HisTrap Excel, HiTrap Heparin, Superdex 200); not shown: His-tag (TEV protease-cleavable), N-terminal, kept
# T1 sequence (looked up): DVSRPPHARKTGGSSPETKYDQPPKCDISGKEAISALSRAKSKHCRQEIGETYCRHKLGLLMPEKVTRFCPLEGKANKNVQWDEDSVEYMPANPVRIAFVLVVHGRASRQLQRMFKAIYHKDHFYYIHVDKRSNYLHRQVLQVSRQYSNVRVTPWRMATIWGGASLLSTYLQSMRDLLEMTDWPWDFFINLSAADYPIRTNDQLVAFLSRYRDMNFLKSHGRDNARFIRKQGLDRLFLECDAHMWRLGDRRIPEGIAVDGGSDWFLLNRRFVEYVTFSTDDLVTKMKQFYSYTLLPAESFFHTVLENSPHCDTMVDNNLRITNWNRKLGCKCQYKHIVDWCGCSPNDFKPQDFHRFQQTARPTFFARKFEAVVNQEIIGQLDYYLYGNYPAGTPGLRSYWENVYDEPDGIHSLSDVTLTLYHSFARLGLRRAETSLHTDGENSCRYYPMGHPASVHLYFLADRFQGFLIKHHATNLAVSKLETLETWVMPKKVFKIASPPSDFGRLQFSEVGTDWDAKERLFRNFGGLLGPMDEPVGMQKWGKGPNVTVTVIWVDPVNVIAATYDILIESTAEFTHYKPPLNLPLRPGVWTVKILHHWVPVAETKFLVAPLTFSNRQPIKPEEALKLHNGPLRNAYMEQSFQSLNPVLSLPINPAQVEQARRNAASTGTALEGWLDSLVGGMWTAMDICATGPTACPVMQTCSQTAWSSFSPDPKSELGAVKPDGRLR
# B1: Peptide 1 (bikunin-derived acceptor peptide, wild-type sequence) (peptide)
# peptide: QEEEGSGGGQGG
# notes: bikunin (part of the AMBP precursor) around the acceptor serine S215; position 0 is the acceptor serine; also called active peptide 1; bikunin-derived peptide 1; source: synthetic peptide (Genscript)
# B2: Peptide 2 (inactive bikunin-derived peptide, acceptor serine replaced by alanine) (peptide)
# peptide: QEEEGAGGGQGG
# notes: bikunin (part of the AMBP precursor) around the acceptor site S215, with the acceptor serine changed to alanine; source: synthetic peptide (Genscript)
# B3: Peptide 8 (syndecan 1-derived acceptor peptide) (peptide)
# peptide: PAAEGSGEQDFT
# notes: syndecan 1 around the acceptor serine S206; position 0 is the acceptor serine; source: synthetic peptide (Genscript)
# Biological target: T1, human xylosyltransferase 1 (XT1), …
# Experiment: crystal structure; XT1 crystals (hanging drop, Morpheus condition, pH 7.5) soaked with peptide (0.5 or 0.7 mM); for peptide 2 together with UDP-xylose (3.5 mM), giving a ternary complex
# Details: both partners purified
row,Binder,binding result
1,B1,binds
2,B2,binds
3,B3,binds
